B1: ELF3 (parent)
chain: LSKEYWDCLEGKKSKHAPRGTHLW

Variants of: B1
Assay: protein stability index of a GFP-peptide fusion (GPS, HEK-293T) (PSI 1-6); higher = more stable
Details: c terminus: a fixed tail appended
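Also: lentivirally expressed fusions sorted by FACS into six bins by GFP to DsRed ratio, PSI derived from sequencing read proportions per bin multiplied by bin number.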

Protein stability index, by site and new letter:
H16: R 2.4 | S 2.52 | E 3.14 | A 2.72 | I 2.87 | L 2.68 | G 2.88 | K 3.05 | P 2.65 | M 2.3 | Q 2.86 | N 3.2 | D 3.25 | C 2.64 | T 3.43 | Y 3.54 | F 2.64 | V 2.94 | W 2.24
K12: M 2.53 | F 2.71 | L 2.06 | D 3.4 | C 1.97 | P 2.96 | S 3.38 | T 2.43 | G 2.58 | I 2.26 | Q 2.99 | W 1.54 | N 3.68 | Y 1.88 | V 2.23 | H 2.52 | E 3.21 | A 2.54 | R 2.35
E4: K 2.11 | Q 1.74 | G 1.99 | D 2.8 | M 2.56 | Y 2.16 | S 2.38 | V 2.53 | I 2.65 | H 1.89 | L 2.06 | T 2.87 | W 1.58 | N 2.84 | A 2.23 | R 1.86 | P 2.35 | C 4.2 | F 2.13
P18: N 3.36 | K 3.39 | E 3.01 | G 2.46 | L 2.43 | T 3.16 | A 2.68 | Q 2.96 | I 2.6 | V 2.79 | F 2.97 | C 2.53 | S 3.13 | M 2.31 | W 2.24 | D 3 | H 3.24 | R 2.34
A17: Q 3.4 | R 2.38 | I 3.06 | V 3.02 | L 2.45 | K 2.86 | E 3.58 | T 2.86 | D 2.69 | G 3.65 | F 2.78 | H 2.5 | M 3.06 | S 3.12 | N 2.99 | C 3.33 | P 3.21 | W 2.4 | Y 2.65
L9: A 3.38 | H 3.26 | P 3.44 | G 3.65 | M 3.42 | N 3.81 | Q 3.71 | S 3.31 | D 3.22 | T 2.93 | Y 2.84 | R 2.89 | E 3.46 | K 2.92 | I 3.04 | F 2.6 | W 2.27 | C 3.3 | V 3.83
K13: L 2.64 | N 2.36 | I 2.22 | R 2.87 | A 2.76 | V 2.32 | H 2.87 | Q 3.17 | C 2.24 | F 2.74 | P 2.47 | T 2.37 | M 2.3 | W 2.92 | G 3.08 | Y 2.82 | E 3.52 | D 3.24
W6: L 3.08 | H 2.33 | D 3.93 | E 3.66 | G 2.84 | Q 3.43 | Y 3.22 | S 3.44 | R 3.39 | N 3.42 | M 3.56 | A 3.6 | V 3.13 | I 2.96 | F 3 | P 3.82 | T 3.97 | K 3.65 | C 3.38
D7: A 2.28 | C 2.32 | V 2.44 | M 2.6 | P 2.04 | Q 3 | S 2.44 | Y 2.29 | W 1.89 | N 2.96 | E 2.77 | K 2.41 | R 1.65 | F 1.83 | I 2.05 | G 2.15 | H 2.33 | L 2.26 | T 2.76
C8: P 2.04 | D 3.97 | H 3.06 | Y 2.74 | E 2.85 | Q 2.95 | M 3.48 | W 2.17 | S 3.33 | A 3.1 | G 3.2 | T 3.26 | R 3.2 | L 3.08 | F 2.81 | I 2.66 | N 3.07 | K 3.73 | V 3.89
S2: R 2.48 | Q 2.78 | G 3.12 | F 2.26 | I 2.26 | L 1.91 | V 2.36 | D 3.11 | E 3.59 | M 2.48 | K 2.28 | Y 1.91 | P 2.99 | H 3.04 | A 2.59 | T 2.98 | C 2.29 | N 3.13
S14: H 2.5 | T 3.13 | L 2.19 | Y 3.48 | I 2.68 | G 2.77 | C 2.1 | V 2.94 | D 4.18 | E 3.16 | Q 2.71 | F 1.99 | A 2.81 | R 2.92 | N 2.96 | W 3.31 | K 3.08 | P 2.94 | M 2.24
K15: T 3.26 | H 2.52 | N 2.79 | D 3 | Q 2.87 | S 3.04 | C 2.29 | I 2.61 | E 2.77 | L 2.16 | A 2.86 | G 2.56 | Y 1.83 | V 2.64 | M 3.18 | W 2.93 | F 2.74 | P 2.53 | R 3.44
K3: H 2.78 | F 2.1 | Q 2.13 | A 2.7 | V 2.1 | E 2.97 | W 2.35 | R 2.93 | N 2.97 | G 2.02 | D 2.69 | Y 2.6 | T 2.83 | C 2.55 | S 2.61 | P 2.56 | I 2.29 | L 2.57 | M 2.33
Y5: N 3.45 | W 2.66 | H 3.85 | P 3.37 | E 3.62 | V 2.34 | G 2.92 | A 3.23 | K 3.19 | I 2.65 | C 2.91 | F 3.23 | D 3.41 | Q 2.45 | R 3 | M 3.38 | T 2.66 | L 2.19 | S 3.3
E10: H 2.15 | M 2.18 | Y 1.63 | F 2.08 | A 2.52 | L 1.82 | R 1.86 | S 2.49 | D 3.23 | Q 2.73 | V 2.28 | T 2.1 | C 2.07 | G 2.37 | N 2.55 | I 1.61 | P 2.16 | W 2.08 | K 2.18
G11: A 2.91 | V 2.2 | W 1.82 | S 3.5 | H 2.17 | T 2.98 | Y 2.58 | L 2.71 | C 2.27 | N 3.48 | F 2.43 | Q 2.69 | K 2.97 | R 3.26 | D 3.19 | E 3.29 | P 2.89 | I 2.29 | M 1.94
L1: N 2.63 | M 2.06 | K 3.02 | P 1.86 | G 3.33 | S 2.67 | Y 2 | R 2.96 | Q 2.71 | I 2.37 | H 2.16 | T 2.53 | W 1.97 | V 2.77

From the supplement of paper PMC10567573
